Where no end group is shown, it is not given here.
B1: minibinder 7 (designed binder)
chain: SAMERYVKVLLRTAELAREAGDPEDVRKALEKAELVARILHNEELKEEIREVEEEL
modifications: also: biotinylated (site not given here)
B2: minibinder 8 (designed binder)
chain: SLEEEAERVVEELVKEFNLSETQEIALRRYAEFAAKAGASEEVIEELLRRVAERLS
modifications: also: biotinylated (site not given here)

Target: human TLR3 ectodomain (Wuxi Biologics, C-terminal His and Avi tags) (human, UniProt O15455 24-704, biotinylated (for yeast display))
Assay: BLI

Row | Binder | Kd [nM]
1 | B1 | 440
2 | B2 | 1200

— publication PMC11785957 (2025)
